Measured values: US11207289B2, “Use of benzofuran lignans to induce IL-25 expression and suppress mammary tumor metastasis” (ACADEMIA SINICA, priority 2016, dated 2021)

How the values were obtained:
[1] = test system: IL-25; experiment: IL-25 expression in lung fibroblasts, 4T1 tumor resection model (IF staining, flow cytometry); assay type: in vivo, mice
Procedure: BALB/c mice were subcutaneously injected with 4T1-Luc2 cells (5×10^5/100 μl PBS/mouse) into the fourth mammary fat pad under isoflurane anesthesia. Tumor growth was monitored by measuring the tumor volume according to the formula: volume=length×(width)^2/2. After tumors were established (180-200 mm^3) on day 14, test mice were divided into different groups (8 mice/group) and subjected to different treatments. At 15 days post tumor cell implantation, primary 4T1 tumors in situ were surgically removed by a tumor resection process. For drug treatment, mice were administered with different agents, including vehicle-control (PBS), mouse IL-25 protein (10 μg/kg, ProSpec, Vineland, N.J.), Q2-3 (2, 20 or 100 μg/kg) or docetaxel (2 mg/kg; Sigma-Aldrich), by intravenous injection for 3 weeks (3 injections/week) post tumor resection. For in vivo neutralization of mouse IL-25 activity, mice were treated intraperitoneally with either 100 μg anti-mouse IL-25 (IL-17E) antibody (clone 35B; Biolegend) or isotype control rat IgG (100 μg; rat, IgG1κ; Biolegend) at days 0, 3, 6, 9, 12, 15, 18 post tumor resection. To detect metastasis of human MDA-MD-231-Luc2 tumor cells, nude mice were injected subcutaneously with 5×10^5 MDA-MD-231-Luc2 cells into the mammary fat pad under isoflurane anesthesia. After tumors were established (250-350 mm^3) on day 24, test mice were divided into different groups (8 mice/group) and subjected to different treatments. At 25 days post tumor cell implantation, primary MDA-MD-231-Luc2 tumors in situ were surgically removed by a tumor resection process. For drug treatment, mice were administered with PBS (vehicle-control), Q2-3 (100 μg/kg), docetaxel (5 mg/kg) or Q2-3 (100 μg/kg)+docetaxel (5 mg/kg), by intravenous injection for 3 weeks (3 injections/week) post tumor resection. To monitor the progression of mouse (4T1) or human (MDA-MD-231) metastatic tumors, test mice treated with different drugs/agents were compared for their tumor metastatic activity and survival rate aftern another 8 weeks. Bioluminescence signals from the 4T1-luc2 tumor cells in test mice were analyzed using a non-invasive IVIS imaging system (Calipers, Hopkinton, Mass.) after intraperitoneal injection of 150 mg/kg D-luciferin (NanoLight technology, Pinetop, Ariz.).
Lung tissue specimens obtained from each tumor-resected mouse were fixed with 4% formalin and embedded in paraffin. For histological comparison, 6 μm-thick tissue sections were made and stained with hematoxylin and eosin (H&E). For immunofluorescence staining, fixed tissue sections were initially immersed in boiling sodium citrate buffer (0.01 M sodium citrate buffer, pH 6.0) for 30 min Lung tissue sections were blocked with 5% nonfat milk, and incubated with anti-FSP-1 antibody (1:200 dilution; Millipore), FITC-conjugated anti-CD206 antibody (1:200 dilution; Biolegend) or PE-conjugated anti-IL-25 antibody (1:100; R&D) in 1% nonfat milk for 1 hour at room temperature. Sections were then washed with PBS containing 0.1% Tween 20. To detect primary antibodies, some sections were incubated with FITC-conjugated anti-mouse-IgG (1:200; Jackson Immunoresearch, West Grove, Pa.) for FSP-1. 4′,6-Diamidino-2-phenylindole dihydrochloride (1 μg/ml; Sigma-Aldrich) was used to stain the nuclei. Fluorescence microscopy evaluation of immunostained tissue sections was performed using a Zeiss Axiovert 200 M microscope (Carl Zeiss, Heidelberg, Germany) Images were captured with a digital camera (Orca ER, Hamamatsu) and processed using Axiovision 4.6.3 (Carl Zeiss).
For detection of myeloid derived suppressor cells (MDSCs), cells from mouse lung tissue in each group were collected and stained for 30 min at 4° C. with antibodies against specific cell markers, including FITC-conjugated anti-mouse CD11b (for cell surface), APC-Cy7 conjugated anti-mouse Ly-6C and PE conjugated anti-mouse Ly-6G, (both for intracellular staining). All three antibodies were obtained from Biolegend, (San Diego, Calif.). […]

[2] = test system: 4T1 cells; experiment: MTT growth activity of 4T1 cells in fibroblast conditioned media; assay type: cell-based, mouse; details: MTT at 5 days; media applied every 24 hours; IL-25 protein 100 ng/ml
Procedure: (§1) M10, WI38, SKBR3, and MDA-MB-231 cells (1×10^5 cells/ml) dispensed in 96-well plates were incubated with vehicle or test compounds (Q2-3) for 24 h or 72 h in corresponding basal medium in a 5% CO2 incubator. To evaluate the effect of secreted IL-25 from Q2-3-treated fibroblasts on growth activity of mammary tumor cells, 4T1 and MDA-MB-231 cells (1×10^4 cells/ml) dispensed in 96-well plates were incubated with control medium or different fibroblast conditioned media (200 μl/ml) which was changed daily for 5 days. All treatments were performed in triplicate cell cultures. The growth activity of cells was assayed using a 3-(4, 5-dimethythiazol-2-yl)-2, 5-diphenyl tetrazolium bromide (MTT; Sigma-Aldrich) colorimetric method. The absorbance at 570 nm (A570) was measured using a multiwall scanning spectrophotometer.
(§2) To pull down and deplete IL-25 protein molecules in 3T3 or MDA-MB-231 cell conditioned media, the Dynabeads antibody coupling kit (Life Technology; 14311D) was used according to the manufacturer's recommendations, yielding 10 mg/ml anti-IL25 antibody (ProteinTech, Chicago, Ill.)-coupled beads. The rabbit IgG (ProteinTech, Chicago, Ill.) was used as an isotype control antibody. […] The antibody-pulled down proteins from 3T3-CM, NHDF-CM or WI38-CM, were detected for the content of secreted IL-25 protein in each conditioned medium using western blot analysis. […]

[3] = test system: caspases 8 and 3; experiment: Western blot of cleavage of caspases 8 and 3 in MDA-MB-231 cells; assay type: cell-based, human
Procedure: MDA-MB231 and MCF-7 cells were seeded in 6-well plate at 10^5 cells/well for 24 h before transfection. siRNAs used for knockdown of human IL-25 receptor (IL25-RB) were purchased from Biotools (Taiwan, ROC) as follows: IL-17RB-homo-448 (IL-25R-1 siRNA); IL-17RB-homo-519 ([…]); IL-17RB-homo-956 ([…]); negative control (Neg). At the beginning of transfection, each test IL25R siRNA oligomers (100 pmol) was diluted in 250 μl Opti-MEM I Reduced Serum Medium. Aliquots of 5 μl Lipofectamine 2000 transfection reagent (Invitrogen) were diluted with 250 μl Opti-MEM I Reduced Serum Medium. Diluted oligomers were mixed gently with the diluted Lipofectamine 2000 and incubated for 20 min at room temperature. The oligomer-Lipofectamine 2000 complexes were subsequently added to each well containing cells and medium. Cells were incubated at 37° C. for 72 h until test cells were ready to be treated with IL25 cytokine or a different CM.
Cell lysates of 3T3, WI38, NHDF, MDA-MB-231, MCF-10A and MCF-7 or the IL-25-pulled down protein lysates from 3T3, WI38 or NHDF conditioned media were resolved by SDS PAGE using 8, 10 or 15% stepwise gels. […] Loading of equal amounts of protein was assessed using the mouse β-actin protein as a reference. […] Quantification of protein in luminescent bands was performed using ImageJ software. […]

[4] = test system: MDA-MB-231 cells; experiment: MTT growth activity of MDA-MB-231 cells in fibroblast conditioned media; assay type: cell-based, human; details: MTT at 5 days; media applied every 24 hours; IL-25 protein 100 ng/ml
Procedure: as §1, §2

CC(=O)O[C@@]12CO[C@@H]1C[C@H](O)[C@@]1(C)C(=O)[C@H](O)C3=C(C)[C@@H](OC(=O)[C@H](O)[C@@H](NC(=O)OC(C)(C)C)c4ccccc4)C[C@@](O)([C@@H](OC(=O)c4ccccc4)[C@H]21)C3(C)C [DT, docetaxel, reference compound]
total FSP-1+ER-TR7+ fibroblast population in lung ([1]; 3 weeks post tumor resection, PBS control 5.2%): did not increase | cell population of IL-25+ fibroblasts (FSP-1+ER-TR7+IL-25+ cells) in lung ([1]; 3 weeks post tumor resection, PBS control 16.7%): did not increase | IL-25 expression in lung fibroblasts (IF staining) ([1]; Q2-3 100 μg/kg, 21 days post tumor resection): little or no IL-25 expression

B1: IL-25: human and mouse IL-25 recombinant protein (protein, UniProt Q9H293 33-177, looked up)
Interleukin-25: YSHWPSCCPSKGQDTSEELLRWSTVPVPPLEPARPNRHPESCRASEDGPLNSRAISPWRYELDRDLNRLPQDLYHARCLCPHCVSLQTGSHMDPRGNSELLYHNQTVFYRRPCHGEKGTHKGYCLERRLYRVSLACVCVRPRVMG
modifications: also mouse IL-25
notes: human and mouse IL-25 recombinant protein
growth activity of 4T1 cells [2]: decreased the growth activity | cleavage of caspases 8 and 3 ([3]; MDA-MB-231, IL-25 100 ng/ml, 24 h): resulted in the cleavage of caspases 8 and 3 | cleavage of caspases 8 and 3 in cells treated with IL-25R siRNA ([3]; MDA-MB-231 treated with IL-25R siRNA): not able to induce | growth activity of MDA-MB-231 cells [4]: decreased the growth activity
